One may read the Kd as a measure of binding affinity in units of concentration. A higher Kd goes with a looser complex.

The values that follow come from paper PMC8828381.

The target in the assay is biotinylated SARS-CoV-2-S1 (SINO BIOLOGICAL #40591-V08H-B) (SARS-CoV-2). The experiment in a line: SPR. A general note: In SPR one partner is held on a chip, and binding of the other changes the refractive index at the surface.

As for “integrin α5β1 extracellular domain with flag tag on α5 and His tag on β1 (from UniProt P08648;P05556) (complex)”, the Kd stood at 31 nM. In other words, the double-digit nanomolar range.
